Results from patent US20210395381A1 (OSSIANIX, published 2021).

Legend:
recombinant human TfR-1 [1] = biological target: T1, recombinant human TfR-1 (human, UniProt P02786 89-760); assay: ELISA titration, large-scale purified VNAR-hFc
T1 construct: extracellular domain; also called hTfR1; human transferrin receptor-1
T1 sequence (P02786 89-760): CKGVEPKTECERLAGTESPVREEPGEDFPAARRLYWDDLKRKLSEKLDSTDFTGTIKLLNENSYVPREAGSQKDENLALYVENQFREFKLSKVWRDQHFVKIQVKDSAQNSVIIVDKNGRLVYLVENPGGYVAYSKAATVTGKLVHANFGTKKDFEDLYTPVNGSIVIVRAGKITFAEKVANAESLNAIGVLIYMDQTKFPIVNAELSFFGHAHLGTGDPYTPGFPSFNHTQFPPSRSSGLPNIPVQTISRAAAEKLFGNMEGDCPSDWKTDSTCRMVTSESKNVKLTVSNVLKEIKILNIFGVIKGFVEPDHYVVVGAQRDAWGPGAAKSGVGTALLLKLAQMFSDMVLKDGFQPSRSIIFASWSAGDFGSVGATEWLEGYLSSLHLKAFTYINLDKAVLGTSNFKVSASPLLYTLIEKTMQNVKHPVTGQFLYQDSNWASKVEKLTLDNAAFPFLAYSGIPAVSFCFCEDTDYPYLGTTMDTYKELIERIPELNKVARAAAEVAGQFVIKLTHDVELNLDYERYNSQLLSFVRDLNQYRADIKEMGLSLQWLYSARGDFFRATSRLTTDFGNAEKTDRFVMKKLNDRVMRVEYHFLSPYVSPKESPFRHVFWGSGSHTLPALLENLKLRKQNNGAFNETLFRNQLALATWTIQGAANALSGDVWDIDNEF

recombinant mouse TfR-1 [2] = biological target: T2, recombinant mouse TfR-1 (mouse, UniProt Q62351 89-763); assay: ELISA titration, large-scale purified VNAR-hFc
T2 construct: Bought recombinant protein; also called mTfR1
T2 sequence (Q62351 89-763 limits assumed): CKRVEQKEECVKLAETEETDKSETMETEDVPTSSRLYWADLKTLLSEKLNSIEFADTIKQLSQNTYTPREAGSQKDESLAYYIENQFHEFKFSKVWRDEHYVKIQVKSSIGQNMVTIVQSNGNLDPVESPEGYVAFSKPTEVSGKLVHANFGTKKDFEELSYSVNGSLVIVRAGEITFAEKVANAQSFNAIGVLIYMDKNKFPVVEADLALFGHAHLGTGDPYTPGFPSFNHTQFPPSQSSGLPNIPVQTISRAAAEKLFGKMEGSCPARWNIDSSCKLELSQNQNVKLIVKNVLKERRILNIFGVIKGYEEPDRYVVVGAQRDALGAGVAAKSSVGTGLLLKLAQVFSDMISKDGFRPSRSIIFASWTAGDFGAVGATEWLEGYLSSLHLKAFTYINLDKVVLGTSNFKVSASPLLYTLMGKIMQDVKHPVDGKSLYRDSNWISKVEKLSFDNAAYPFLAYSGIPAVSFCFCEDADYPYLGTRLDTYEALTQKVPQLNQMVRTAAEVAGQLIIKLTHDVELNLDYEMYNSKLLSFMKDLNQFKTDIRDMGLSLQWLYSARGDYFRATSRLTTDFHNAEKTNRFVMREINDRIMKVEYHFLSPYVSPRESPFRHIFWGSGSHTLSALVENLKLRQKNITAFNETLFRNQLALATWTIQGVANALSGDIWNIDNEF

recombinant human TfR-1 [3] = biological target: T3, recombinant human TfR-1 (human, UniProt P02786 89-760); assay: phage ELISA, VNAR-phage on plate-coated recombinant human TfR-1
T3 construct: also called hTfR1; human transferrin receptor-1
T3 sequence (P02786 89-760 limits assumed): as the sequence (P02786 89-760) above

recombinant mouse TfR-1 [4] = biological target: T4, recombinant mouse TfR-1 (mouse, UniProt Q62351 89-763); assay: phage ELISA, VNAR-phage on plate-coated recombinant mouse TfR-1
T4 construct: Coated at 1 ug/ml for the phage ELISA; also called mTfR1; mouse transferrin receptor-1
T4 sequence (Q62351 89-763 limits assumed): as the sequence (Q62351 89-763 limits assumed) above

| Binder | EC50 (recombinant human TfR-1 [1]) [nM] | fold difference of EC50 against parental Clone 8 (recombinant human TfR-1 [1]) [fold] | EC50 (recombinant mouse TfR-1 [2]) [nM] | fold difference of EC50 against parental Clone 8 (recombinant mouse TfR-1 [2]) [fold] | phage ELISA A450 (recombinant human TfR-1 [3]) [A450] | phage ELISA A450 (recombinant mouse TfR-1 [4]) [A450] |
| --- | --- | --- | --- | --- | --- | --- |
| Clone 8.5 VNAR-hFc fusion (Fc fusion, human, not shown: small tags and cut ends, domain: Fc (CH2 and CH3); also called the variant) chain (part 1 of 2): ARVDQTPQTITKETGESLTINCVLRDSNCALPSTYWYRKKSGSTNEESISKGGRYVETVNSGSKSFSLRINDLTVEDSGTYRCKVIAQLGWWLRGCNYRKHDVYGDGTAVTVNA chain (part 2 of 2): DKTHTCPPCPAPPVAGPSVFLFPPKPKDTLMISRTPEVTCVVVDVSHEDPEVKFNWYVDGVEVHNAKTKPREEQYNSTYRVVSVLTVLHQDWLNGKEYKCKVSNKGLPSSIEKTISKAKGQPREPQVYTLPPSRDELTKNQVSLTCLVKGFYPSDIAVEWESNGQPENNYKTTPPVLDSDGSFFLYSKLTVDKSRWQQGNVFSCSVMHEALHNHYTQKSLSLSPGK | 27 | > 25 | 47 | > 25 | – | – |
| Clone 8.156 (VNAR) VNAR: ARVDQTPQTITKETGESLTINCVLRDSNCALPSTYWYRKKSGSTNEESISKGGRYVETVNSGSKSFSLRINDLTVEDSGTYRCKVIAQLSSQSVGCNYRKHDVYGDGTAVTVNA | – | – | – | – | 0.062 | 0.044 |
| Clone 8.158 (VNAR) VNAR: ARVDQTPQTITKETGESLTINCVLRDSNCALPSTYWYRKKSGSTNEESISKGGRYVETVNSGSKSFSLRINDLTVEDSGTYRCKVIAQLNVILRGCNYRKHDVYGDGTAVTVNA | – | – | – | – | 0.046 | 0.043 |
| Clone 8.159 (VNAR) VNAR: ARVDQTPQTITKETGESLTINCVLRDSNCALPSTYWYRKKSGSTNEESISKGGRYVETVNSGSKSFSLRINDLTVEDSGTYRCKVIAQLSSDGQGCNYRKHDVYGDGTAVTVNA | – | – | – | – | 0.057 | 0.043 |
| Clone 8.161 (VNAR) VNAR: ARVDQTPQTITKETGESLTINCVLRDSNCALPSTYWYRKKSGSTNEESISKGGRYVETVNSGSKSFSLRINDLTVEDSGTYRCKVIAQLSSILRGCIAGKHDVYGDGTAVTVNA | – | – | – | – | 0.048 | 0.043 |
| Clone 8.157 (VNAR) VNAR: ARVDQTPQTITKETGESLTINCVLRDSNCALPSTYWYRKKSGSTNEESISKGGRYVETVNSGSKSFSLRINDLTVEDSGTYRCKVIAYRKSIVRGCNYRKHDVYGDGTAVTVNA | – | – | – | – | 0.048 | 0.044 |
| Clone 8.155 (VNAR) VNAR: ARVDQTPQTITKETGESLTINCVLRDSNCALPSTYWYRKKSGSTNEESISKGGRYVETVNSGSKSFSLRINDLTVEDSGTYRCKVIAQLSSILRGCNYKIADVYGDGTAVTVNA | – | – | – | – | 0.053 | 0.044 |
| Clone 8.160 (VNAR) VNAR: ARVDQTPQTITKETGESLTINCVLRDSNCALPSTYWYRKKSGSTNEESISKGGRYVETVNSGSKSFSLRINDLTVEDSGTYRCKVIAQLSSILRGCFPQKHDVYGDGTAVTVNA | – | – | – | – | 0.049 | 0.043 |
| Clone 8.162 (VNAR) VNAR: ARVDQTPQTITKETGESLTINCVLRDSNCALPSTYWYRKKSGSTNEESISKGGRYVETVNSGSKSFSLRINDLTVEDSGTYRCKVIAQLSSNRNGCNYRKHDVYGDGTAVTVNA | – | – | – | – | 0.055 | 0.042 |
